# Reference: the supplement of paper PMC9170038
# Test system: K4 kissing-loop RNA reporter
# Experiment: apparent KD of K4 kissing-loop reporter; higher = weaker reporter binding
# Settings: Eterna round: R107
# Protocol: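 RNA-MaP round R107: designed RNA switches with theophylline, tryptophan, arginine or FMN aptamers are transcribed on-chip within common flanks. They are titrated with a labelled K4 kissing-loop RNA reporter in RNA-MaP buffer (100 mM Tris pH 7.5, 80 mM KCl, 4 mM MgCl2), without ligand or with the indicated ligand. Median apparent KD per design.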
# [1] = input ligand: theophylline 20 uM
# [2] = input ligand: tryptophan 2.4 mM
# 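Note: bound reporter read as fluorescence of individual clusters on recovered sequencing chips by microscopy, with normalized cluster intensities fitted with a binding model.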
Sequence,apparent KD of K4 kissing-loop reporter (input ligand: FMN 200 uM),apparent KD of K4 kissing-loop reporter (input ligand: arginine 13.2 mM),apparent KD of K4 kissing-loop reporter (input ligand: none),apparent KD of K4 kissing-loop reporter [1],apparent KD of K4 kissing-loop reporter [2]
GGGAGGAGUGGUGUUGAUUAGGGAGCGGAAGGAGCGCCGAAGAAGGCAGGUAGGUCGCCGGAAUAUAGUGAUGUUAUAUAGAGGG [ExArg.G],304 nM,211 nM,270 nM,168 nM,201 nM
GGGAGGAUUAAAUAAAUAAAUAAGAUAGAUACCAGUUGAGAGUAAGGCCCUUGGCAGCUAAAACGAGUGAUGUUCGAGUAAAUCC [Default title],81.6 nM,88.8 nM,63 nM,147 nM,62.4 nM
GGGAGUAGUGCGGCCGCCACUGAGAAAGAAGAAGAAUAUAGUGAUGUUAUAUAGGAAUAAAAGAACAGGACCGGGCAUUAGAUUU [SSTRyptB.T],263 nM,239 nM,255 nM,196 nM,167 nM
GGGCUGGUGCUAGGAUAUGCGAUGAAUGCUCAGGAAACCUUGAGUCCGCAGUGAUGUUGCGGCACCGCAGAAGGAGCUUAGGCUC [Esbequ],146 nM,263 nM,222 nM,292 nM,172 nM
GGGUCUGCGCGAAGGAGCGCCCUGACAGGUUGCUGCCGUGGGCAGUGAUGUUGCUCAGUCCGGCAGGUAGGUCGCGUGCAGACCC,135 nM,161 nM,176 nM,169 nM,160 nM
GGUAGCAUGGCGGCCGCCACUAAGAGAGUGAUGUUCUCUUAGUUUUUUGAUAUAUUAUCAAUUCUUAGGACCGGGCCAUGCUACC,121 nM,79.9 nM,94.7 nM,98.9 nM,100 nM
GGUAGCAUGGCGGCCGCCACUACAAGUAGUGACCCAAGUGAUGUUUGGAAGCGGGUCCUAAUUGGUAGGACCGGGCCAUGCUACC,509 nM,502 nM,496 nM,401 nM,566 nM
GGUAGCAUGGCGGCCGCCACUUUUUUAGAUACCUACACAGAAAGCAGUGAUGUUGCUUGGUGGUAAAGGACCGGGCCAUGCUACC,149 nM,131 nM,136 nM,137 nM,105 nM
GGUAUCUAUACAGAUACCAGUCGUACAGCACCAUUACAGGUUAGUGAUGUUAACCUGUACGACCCUUGGCAGCUGUAUUAUAAUA [#15 K4 Theophylline B Exclusion],94.3 nM,88.7 nM,86.8 nM,91.4 nM,85.2 nM
GGUCGAGUGAUGUUCGAUGUAGUGCAUUCAGAGGAUAUAGGAUUGGCUAGAAGGCUGAAACCUUCUUCGAGUGAUGUUCGAGGAU [Same State FMN A GF5],130 nM,83.8 nM,112 nM,90.1 nM,77.8 nM
GGUGACGACCAGAGGUGAUGUAUAGUAUCGCGAGGACCGGUACGGCCGCCACUCGUGAAGAGAAAGGAGUGAUGUUCCGUAAUGG [Kazoo C9],241 nM,217 nM,289 nM,289 nM,108 nM
GGUGGCGUUGUUGACAGCUCACCACGAGCCAAGGAUAUAGUUUCUUCUAGAAGGUGGAAUGACAAGUGAUGUUUGUACGACUGCU [theeternabot_exclusion_KL_FMN_A_28],254 nM,233 nM,254 nM,294 nM,185 nM
GGUGGCUUACAAAGCUCAGUGAUGUUGAGCCGAGGACCGGUACGGCCGCCACUCGUUUGCCAUUCACUACAGUUACAAGCACUAG [theeternabot_exclusion_KL_Trp_A_2],269 nM,217 nM,279 nM,282 nM,292 nM
GGUGUUGUUUGUGCUGUUUUCCUCGUUCCUCGAGGACCGGUACGGCCGCCACUCGAGUGAUGUUUGGGUAGCGAUCCCUGUUAGU [Bdazzled - #8 Exc. Tryptophan A],624 nM,504 nM,675 nM,649 nM,593 nM
GGUGUUGUUUGUGCUGUUUUCUUCGUUUCUCGAGGACCGGUACGGCCGCCACUCGAGUGAUGUUUGGGUAGCGAUCUUUGUUAGU [Bdazzled - #4- Exc. Tryptophan A],430 nM,256 nM,345 nM,339 nM,385 nM
GGUUAAAGCACCCGGAGUGAUGUUCCGGAUACCAGCAAACCAACUUGCCCUUGGCAGCCGUAUAGCGUCCGGUGGGCCGAGCAUA [Raarce],94.9 nM,94.3 nM,98.4 nM,97.6 nM,92.7 nM
GUAGACAGACUGCAAGCCUAGUCUACAGACUAGGAUAUCAGGAAACUGAGAAGGAGUCUAGUUGCAGUGAUGUUGCAAGAAUAAU [KL-SSFMN-A24],120 nM,135 nM,123 nM,140 nM,99.8 nM
GUAUAUUAGGGAGACCUAAUAUAAAUAGAAGGAGCGUAGGAAACUACAGGUAGGUCGCUAAAUAUACAGUGAUGUUGUAUAAUGG [arg a same],183 nM,147 nM,172 nM,195 nM,141 nM
GUAUCGCUAGGAGGAUAUUUCGUUUUUCAUAGCAAUGGCUGUGCGGAGUGAUGUUCCGAUUUACCGGAAGAAGGCCUAGUGAUAC [FMN B 27],107 nM,165 nM,180 nM,158 nM,161 nM
GUCAUGCGUUCAGGAUAUGGACCAAUUUAUAUUGCUUAUGCUGUGCCCUGUAUGGCAGUGAUGUUGCCAGAAGGGAGGGCAUGCA [Erbionvean],116 nM,88 nM,96.6 nM,111 nM,102 nM
GUCCACACUGCAGGAUAUGGAGGUAUAGCGAGGGAGUGUGGAAGCACACCUCUGGCAGUGAUGUUGCCAGAAGGGCGGUGCGGCG [Masodionra],118 nM,103 nM,119 nM,90.3 nM,93.2 nM
GUCCAUGUCCUCAUUCGUGCACUGGACACCAAGGAUAUGUUUAUGGACAGAAGGUGGUUGGGUCAGUGAUGUUGAUAUAAUUAGU [theeternabot_exclusion_KL_FMN_A_24],208 nM,276 nM,278 nM,406 nM,194 nM

Sequence,apparent KD of K4 kissing-loop reporter (input ligand: FMN 200 uM),apparent KD of K4 kissing-loop reporter (input ligand: arginine 13.2 mM),apparent KD of K4 kissing-loop reporter (input ligand: none),apparent KD of K4 kissing-loop reporter [1],apparent KD of K4 kissing-loop reporter [2]
GUCGGCCGCGCGCAAGCGCGGCCGGCCGAUACCAGCGCGCCGGUGCGCCCUUGGCAGCGGCACCGAGUGAUGUUCGGUCAGACGA [#2 Same State - Theophylline A Attempt #6 (HarryS)],407 nM,161 nM,308 nM,113 nM,234 nM
GUCUGCGUCUCGGCCGCCACUCACUAGUGAUGUUAGUAAGGAGCGACUAGAGAAGUCCAGUUGAUGAGGACCGGGAGACGCAAAA [Exclusion Tryptophan B GF4],114 nM,84.3 nM,95.7 nM,85.8 nM,169 nM
GUGAAGGAGCUGCAGUGAUGUUGCAGAGACUAGGAUAUCAGGAAACUGAGAAGGAGUCAACUCCUUCACCUAGACAACAUCACUA [[F]''-[K1]-[K2]-[F1]-[F2]-[F2]'-[F1]'-[K]'_Design2],148 nM,151 nM,128 nM,269 nM,187 nM
GUGCAGUGAUGUUGCACGAGGAAAGACGAUACCAGCCGUAAAUAAGGCCCUUGGCAGCGUGGGCUAGCACAAAAUAUGCUAGUCU [Laleingeat],97.9 nM,99.6 nM,107 nM,68.4 nM,117 nM
GUGCGCGCGGCGGCCGCCACUCGCAUGAGAGUGAUGUUCUCACCGUGACCGCAAGGUCGCGGUGUGAGGACCGGGCCGGGCUGCG [#2 Same State - Tryptophan B Attempt #25 (HarryS)],74.3 nM,93.5 nM,217 nM,464 nM,297 nM
GUGCGCGCGGCGGCCGCCACUCGCAUGAGAGUGAUGUUCUCGGGACUGACGGAAGUCAGUCAUGGGAGGACCGGGCCGGGCUGCG [#2 Same State - Tryptophan B Attempt #13 (HarryS)],360 nM,958 nM,208 nM,1140 nM,521 nM
GUGCGCGGUGCGGCCGCCACUCGCAUGAGAGUGAUGUUCUCGGGACGGACGGAAGUCCGUCAUGUGAGGACCGGGCAUGGCUGCG [#2 Same State - Tryptophan B Attempt #10 (HarryS)],894 nM,344 nM,416 nM,497 nM,453 nM
GUGCGUAAGUGAUGUUUACGUCAGCUCCGCAAGGAUAUCCUGAUUAGGAGAAGGUGCGGGAACUAAAGACGCUCGUUCUAGCAGG [theeternabot_exclusion_KL_FMN_A_33],146 nM,182 nM,205 nM,168 nM,162 nM
GUGGUACAGGCGGCCGCCACUAGUGAUGUUAGUGUUAGAAGAUAUAGUAUAUAUCGGCAUUUGUUUAGGACCGGGCCUGGUGGAG [aqzacmullin],209 nM,166 nM,184 nM,189 nM,182 nM
GUUACGCAUGGAAGGAGCGCUCUCAUAUUUAAUAACACAGUGAUGUUGUGAAUUUAUAUAAAGCAGGUAGGUCGCCAUGUGUAAC [Ex Arginine B K4 6],336 nM,281 nM,326 nM,276 nM,258 nM
GUUACGCAUGGAAGGAGCGCUCUCCGGCUUAUUAACACAGUGAUGUUGUGAUUUUGCCGAAAGCAGGUAGGUCGCCAUGUGUAAC [Ex Arginine B K4 11],487 nM,363 nM,451 nM,447 nM,451 nM
GUUCGAUUCUGAGUGAUGUUGAGAAUUGAGAAGGAUAUCCAGAAAAGGAGAAGGUCUACGUCAUGCGCCUCGAUUUGCUAGCUGC [theeternabot_exclusion_KL_FMN_A_50],835 nM,567 nM,630 nM,515 nM,609 nM
GUUGUCUACCAGAGGUGAUGUAUAGUAUCGCGAGGACCGGUACGGCCGCCACUCGUGAAGAGAAAGGAGUGAUGUUCCGUAAUGG [C10],255 nM,271 nM,293 nM,301 nM,118 nM
UAACCGCAGAAAGAUACCAGUGAGUGAUGUUCCUCGAUCCUGUGGUUCAUUCUCUUUACCCACCCUUGGCAGCUUCAAAUGUGAC [theeternabot_exclusion_KL_Theo_B_4],831 nM,537 nM,850 nM,573 nM,602 nM
UAACUCUUGCAGUGAUGUUGCAAGUAAGCUCAGGAUAUCAGGAAACUGAGAAGGGAGCAUCCUGAGCUUCUGCAAGAGCUCAGAA [KL-SSFMN-A4],254 nM,152 nM,184 nM,217 nM,189 nM
UAACUGCAGUGAUGUUGCAGAUGUCCUGACUAGGAUAUCAGGAAACUGAGAAGGAGUCCCUUCUAAACAUCACAGAAGGAGGACA [[K1]-[K2]-[F1]'-[F1]-[F2]-[F2]'-[K]'-[F]''_Design2],491 nM,415 nM,434 nM,508 nM,442 nM
UAACUGCAGUGAUGUUGCAGAUGUCCUGACUAGGAUAUCAGGAAACUGAGAAGGAGUGCCUUCUAAACAUCACAGAAGGUGGACA [KL-SSFMN-A28],360 nM,440 nM,415 nM,286 nM,458 nM
UAAGGGUUAUGUCCUCGGUGCGAAGAGCUCCGAGGACCGGUACGGCCGCCACUCGGAAGUUCUGAGUGAGGGAGUGAUGUUCCCU [Skye_Ex_TA],312 nM,291 nM,359 nM,315 nM,306 nM
UAAUAAAUUCCAGCUGUAUCACUCUUCGAAGGAGCGGACGAAAGUCCAGGUAGGUCGCGAAGAGUGAUGUUCUUUGCGGCGCUGG [Omei KL Arginine A Exc A v6],82.3 nM,68.4 nM,94.8 nM,76.6 nM,57.1 nM
UAAUAUCAACUUGUAGGAGUGAUGUUCCGCCGAGGACCGGUACGGCCGCCACUCGACAAAAUCUCAGUGUGGUACCUAGGAAUUU [theeternabot_exclusion_KL_Trp_A_24],406 nM,313 nM,374 nM,352 nM,431 nM
UAAUAUCCGUCGGCCGCCACUCACCAGUGAUGUUGGAGGAGUGAUGUUCCACGAGUGAUGUUCGAGAGGACCGGGACGGACGAUG [6th],134 nM,114 nM,126 nM,108 nM,103 nM
